Test results: PMC3546673
Each block holds one substance with its values, some of them ahead of it.

Assays:
[1] = biological target: gelsolin-capped actin filaments (UniProt P68135); assay: single filament binding assay (fluorescence microscopy); gelsolin-capped actin filaments labeled with rhodamine-phalloidin, incubated with Alexa-488-conjugated trx-PT or mutant (5 μM), 22 °C, 30 min; diluted 1:50 and put on poly-L-lysine-coated coverslips
[2] = biological target: F-actin (actin filaments) (UniProt P68135); assay: single filament binding assay (fluorescence microscopy); actin filaments from 1 μM G-actin with rhodamine-phalloidin (1 μM) and Alexa-488-labeled trx protein (5 μM), 22 °C, 30 min; diluted 1:50 and put on poly-L-lysine-coated coverslips

- percent localized at a filament end [1]: 96%
Substance: trx-PT(35–165) (domain or fragment)

- percent bound to the sides of actin filaments [2]: 98%
Substance: trx-PT(125–165) (domain or fragment)

- percent localized at the filament end [2]: 96%
Substance: recombinant thioredoxin-phostensin (trx-PT) (natural protein)
